Results from US11254722B2, “Recombinant proteins and uses thereof” (ACADEMIA SINICA, priority 2017, dated 2022).
Where two headings read alike, the source gives them in different places.

B1: IGFBP3-v1v2-erbB4-Fc: ErbB4-GS-IGFBP3-gly 3 linker-v1v2-Fc, SEQ ID NO: 20 (protein)
chain: MSEVPVARVWLVLLLLTVQVGVTAGVQPSDSQSVCAGTENKLSSLSDLEQQYRALRKYYENCEVVMGNLEITSIEHNRDLSFLRSVREVTGYVLVALNQFRYLPLENLRIIRGTKLYEDRYALAIFLNYRKDGNFGLQELGLKNLTEILNGGVYVDQNKFLCYADTIHWQDIVRNPWPSNLTLVSTNGSSGCGRCHKSCTGRCWGPTENHCQTLTRTVGGGGSGGGGSGGGGSGGGGSGGGGGASSAGLGPVVRCEPCDARALAQCAPPPAVCAELVREPGCGCCLTCALSEGQPCGIYTERCGSGLRCQPSPDEARPLQALLDGRGLCVNASAVSKGHAKDSQRYKVDYESQSTDTQNFSSESKRETEYGPCRREMEDTLNHLKFLNVLSPRGVHIPNCDKKGFYKKKQCRPSKGRKRGFCWCVDKYGQPLPGYTTKGKEDVHCYSMQSKAPPAPGNASESEEDRSAGIYIFISDTGRPFVEMYSEIPEIIHMTEGRELVIPCRVTSPNITVTLKKFPLDTLIPDGKRIIWDSRKGFIISNATYKEIGLLTCEATVNGHLYKTNYLTHRQGYRIYDVVLSPSHGIELSVGEKLVLNCTARTELNVGIDFNWEYPSSKHQHKKLVNRDLKTQSGSEMKKFLSTLTIDGVTRSDQGLYTCAASSGLMTKKNSTFVRVHEKVECPPCPAPPVAGPSVFLFPPKPKDQLMISRTPEVTCVVVDVSHEDPEVKFNWYVDGVEVHNAKTKPREEQYNSTYRVVSVLTVLHQDWLNGKEYKCKVSNKGLPSSIEKTISKAKGQPREPQVYTLPPSREEMTKNQVSLTCLVKGFYPSDIAVEWESNGQPENNYKTTPPVLDSDGSFFLYSKLTVDKSRWQQGNVFSCSVMHEGLHNHYTQKSLSLSPGK
B2: 4142: SEQ ID NO: 24; the N-terminus only (protein)
chain: MSEVPVARVWLVLLLLTVQVGVTAGGASSAGLGPVVRCEPCDARALAQCAPPPAVCAELVREPGCGCCLTCALSEGQPCGIYTERCGSGLRCQPSPDEARPLQALLDGRGLCVNASAVSVECPPCPAPPVAGPSVFLFPPKPKDQLMISRTPEVTCVVVDVSHEDPEVKFNWYVDGVEVHNAKTKPREEQYNSTYRVVSVLTVLHQDWLNGKEYKCKVSNKGLPSSIEKTISKAKGQPREPQVYTLPPSREEMTKNQVSLTCLVKGFYPSDIAVEWESNGQPENNYKTTPPVLDSDGSFFLYSKLTVDKSRWQQGNVFSCSVMHEGLHNHYTQKSLSLSPGK
B3: 4382: SEQ ID NO: 25; the complete link region (protein)
chain: MSEVPVARVWLVLLLLTVQVGVTAGGASSAVNASAVSRLRAYLLPAPPAPGNASESEEDRSAGSVESPSVSSTHRVSDPKFHPLHSKIIIIKKGHAKDSQRYKVDYESQSTDTQNFSSESKREVECPPCPAPPVAGPSVFLFPPKPKDQLMISRTPEVTCVVVDVSHEDPEVKFNWYVDGVEVHNAKTKPREEQYNSTYRVVSVLTVLHQDWLNGKEYKCKVSNKGLPSSIEKTISKAKGQPREPQVYTLPPSREEMTKNQVSLTCLVKGFYPSDIAVEWESNGQPENNYKTTPPVLDSDGSFFLYSKLTVDKSRWQQGNVFSCSVMHEGLHNHYTQKSLSLSPGK
B4: 4141: SEQ ID NO: 23; a fragment comprising the N-terminus and the linker region from h3t33 (protein)
chain: MSEVPVARVWLVLLLLTVQVGVTAGGASSAGLGPVVRCEPCDARALAQCAPPPAVCAELVREPGCGCCLTCALSEGQPCGIYTERCGSGLRCQPSPDEARPLQALLDGRGLCVNASAVSKGHAKDSQRYKVDYESQSTDTQNFSSESKRETEYVECPPCPAPPVAGPSVFLFPPKPKDQLMISRTPEVTCVVVDVSHEDPEVKFNWYVDGVEVHNAKTKPREEQYNSTYRVVSVLTVLHQDWLNGKEYKCKVSNKGLPSSIEKTISKAKGQPREPQVYTLPPSREEMTKNQVSLTCLVKGFYPSDIAVEWESNGQPENNYKTTPPVLDSDGSFFLYSKLTVDKSRWQQGNVFSCSVMHEGLHNHYTQKSLSLSPGK

Columns and labels:
hep3B cells = assay: hep3B proliferation assay; assay type: cell-based, human; conditions: Homo sapiens, Hep3B, FIG. 15, read-out: IC50 of erlotinib to EGFR-wildtype hep3B cells
Method: For the proliferation assay, cells except for HUVEC were seeded at a density of 1,000 to 6,000 in 96 wells in an assay buffer of DMEM/F12 plus 0.2% BSA and 10 ug/ml transferrin. Chemical inhibitors were added after 16-20 hours after plating; IGF-1 or other growth factors or test chimeras in assay buffer were added at the time of plating or 16-20 hours after plating. 5,000 HUVEC ells were plated in poly-L-lysine coated 96 wells in M199 with 1%/FBS and HEPES. After 3 to 4 days of culture, growth was determined by incubating cells with Alamar blue for 4 to 6 hours and then the fluorescence (RFU) at 544/590 nm was read. For long term proliferation assays, cells were plated in the growth media with 5% or 10% FBS at densities of 500 to 10,000 cells per cm^2 growth area and grown for 7 to 21 days. Inhibitors and effectors were added 1-4 days after plating. Cells were exposed to cisplatin or gemcitabine for two days. Medium was renewed twice weekly. At completion, cells were fixed and then stained with Giemsa.
The human hepatoma cell line hep3B could be stimulated by many growth factors including IGF-1, IGF-2, HGF, bFGF, VEGF, and neuregulin.

[1] = system: PC-9 non-small cell lung cancer cells; assay: PC-9 subcutaneous tumors in NSG mice, daily erlotinib; assay type: in vivo; conditions: erlotinib alone, 25 mg/kg orally daily; day 20
Method: (§1) 5×10exp6 PC-9 non-small cell lung cancer cells were injected subcutaneously in Nod scid gamma (NSG) mice. […] Erlotinib in 6% captisol was dosed orally daily at 25 mg/kg; IGFBP3Fc (3(del3)3) was dosed intraperitoneally at 25 mg/kg three times per week; control animals were administered vehicle. Dosing was started on day 11; erlotinib and erlotinib plus D3 was discontinued on day 19; D3 injections were discontinued on day 22.

PC-9 tumors = assay: PC-9 subcutaneous tumors in mice, low dose erlotinib; assay type: in vivo; conditions: erlotinib 25 mg/kg 3 times per week; FIG. 27
Method: as §1
Subcutaneous PC-9 tumors were generated and measured as above. Chimera D3 was dosed as above; erlotinib was dosed at 25 mg/kg 3 times per week in order to examine the effect of the chimera D3 on the tumor growth with suboptimal erlotinib dosing. The treatment started on day 8 and ended on day 22.

[2] = target: T1, nrgEGF (amino acids Thr176-Lys246 of neuregulin-beta 1) (Homo sapiens, UniProt Q02297); assay: Biacore binding to nrgEGF
T1 construct: Thr176-Lys246 of neuregulin-beta 1; purchased R&D Sciences or SinoBiologicals
T1 sequence (Q02297 176-246 isoform Q02297-6): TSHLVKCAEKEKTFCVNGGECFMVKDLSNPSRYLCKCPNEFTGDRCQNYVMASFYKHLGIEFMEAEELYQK
Method: (§2) Biacore binding was performed at David Myszka's laboratory at the University of Utah or at the Genomic Research Center at Academia Sinica. Surfaces of binding protein chimera were made via chemical immobilization on a CM4 chip using standard amine coupling chemistry. […] Excess surface carboxyl activated sites on all four flow cells was blocked using the doubly positively charged species ethylenediamine. Binding experiments (but not immobilizations) in HBS-P (10 mM HEPES pH 7.4, 150 mM NaCl, 0.05% P20), The HBS-P was supplemented with BSA at 0.2 mg/mL, or HBS-P was supplemented with 500 mM NaCl (650 mM NaCl, final concentration). Analytes were also reconstituted in the corresponding buffer. All experiments were performed at 25° C. 1/150 dilutions of phosphoric acid were used to regenerate IGFBP3-Fc surfaces and a sequence of 3 M MgCl2 followed by 5 M GuCl was used to regenerate surfaces immobilized with growth factor. Dissociation constants reported below used immobilized binding protein unless noted. Differences between binding constants may be expected between growth factor immobilization and chimera immobilization.
In this example, erbB4 domain 1 was attached to the N-terminus of the recombinant IGFBP3-Fc or the recombinant IGFBP3-v1v2-Fc.

IGF-1 = target: T2, IGF-1 (Homo sapiens, UniProt P05019); assay: Biacore binding to IGF-1; set-up: key to growth factor binding, igf1: +: sufficient to bind; −: unable to bind; conditions: tested in .65M NaCL
T2 construct: purchased R&D Sciences or SinoBiologicals
Method: as §2

IGF-2 = target: T3, IGF-2 (Homo sapiens, UniProt P01344); assay: Biacore binding to IGF-2; set-up: key: +: sufficient to bind; −: unable to bind; conditions: tested in .65M NaCL
T3 construct: purchased R&D Sciences or SinoBiologicals
Method: as §2

nrgbx = assay: Biacore binding to nrgbx; set-up: key: +: sufficient to bind; −: unable to bind; conditions: tested in .65M NaCL
Method: as §2

bFGF = target: T4, bFGF (Homo sapiens, UniProt P09038); assay: Biacore binding to bFGF; set-up: key: +: sufficient to bind; −: unable to bind; conditions: tested in .65M NaCL
T4 construct: purchased R&D Sciences or SinoBiologicals
Method: as §2

VEGF B = target: T5, VEGF B (Homo sapiens, UniProt P49765); assay: Biacore binding to VEGF B; set-up: key: +: sufficient to bind; −: unable to bind; conditions: tested in .65M NaCL
T5 construct: purchased R&D Sciences or SinoBiologicals
T5 sequence (P49765 22-207): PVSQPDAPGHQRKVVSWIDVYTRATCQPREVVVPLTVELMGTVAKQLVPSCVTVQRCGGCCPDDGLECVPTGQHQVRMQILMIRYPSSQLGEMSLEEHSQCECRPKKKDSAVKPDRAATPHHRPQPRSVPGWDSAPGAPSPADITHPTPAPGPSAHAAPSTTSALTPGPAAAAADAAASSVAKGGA
Method: as §2

PDGF AB = target: T6, PDGF AB (Homo sapiens, UniProt P01127+P04085); assay: Biacore binding to PDGF AB; set-up: key: +: sufficient to bind; −: unable to bind; conditions: tested in .65M NaCL
T6 construct: purchased R&D Sciences or SinoBiologicals
Method: as §2

T2 sequence (P05019 49-118 limits assumed): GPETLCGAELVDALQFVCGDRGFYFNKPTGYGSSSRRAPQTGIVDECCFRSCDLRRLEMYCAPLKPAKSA
T4 sequence (P09038 143-288): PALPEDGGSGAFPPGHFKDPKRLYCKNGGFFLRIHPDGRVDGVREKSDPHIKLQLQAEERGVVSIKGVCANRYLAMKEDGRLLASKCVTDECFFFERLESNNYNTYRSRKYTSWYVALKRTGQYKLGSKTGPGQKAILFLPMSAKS
T6 sequence (P01127 82-190 limits assumed, other chains not shown): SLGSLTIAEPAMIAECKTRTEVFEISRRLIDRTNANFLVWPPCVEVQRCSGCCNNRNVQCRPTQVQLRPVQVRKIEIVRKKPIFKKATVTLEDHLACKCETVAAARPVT
T3 sequence (P01344 25-91): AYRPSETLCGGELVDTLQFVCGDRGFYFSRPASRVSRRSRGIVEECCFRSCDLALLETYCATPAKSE

Molecule	IC50 (hep3B cells; cells not treated with chimera h3t33Fc) [nM]	IC50 (hep3B cells; with the addition of 100 nM chimera h3t33Fc) [nM]	tumor volume of treated to control (T/C) [1] [%]	tumor regression with intermittent dosing (PC-9 tumors)	Kd [2] [nM]	growth factor binding, igf1 (IGF-1)	growth factor binding, igf2 (IGF-2)	growth factor binding, nrgbx (nrgbx)	growth factor binding, bFGF (bFGF)	growth factor binding, VEGF B (VEGF B)	growth factor binding, PDGF AB (PDGF AB)
C#Cc1cccc(Nc2ncnc3cc(OCCOC)c(OCCOC)cc23)c1 [erlotinib, reference compound]	~10000	~100	38	did not cause the tumor regression							
B1					11						
B2						+	+	−	−	−	−
B3						−	−	−	−	−	−
B4						+	+	+	+	+	+
